From paper PMC7473855, “An alpaca nanobody neutralizes SARS-CoV-2 by blocking receptor interaction” (Nature Communications, 2020)
Where “and” joins values, the source holds several entries; their conditions need not be identical. Equal values may be shown once.

Assays:
[1] = target: T1, SARS-CoV-2 spike receptor-binding domain (RBD) (SARS-CoV-2, UniProt P0DTC2 319-541); assay: ITC; details: both partners purified
T1 construct: also called monomeric RBD

[2] = target: T1, SARS-CoV-2 spike receptor-binding …; assay: BLI; details: both partners purified

B1: Ty1 nanobody (VHH)
VHH: QVQLVETGGGLVQPGGSLRLSCAASGFTFSSVYMNWVRQAPGKGPEWVSRISPNSGNIGYTDSVKGRFTISRDNAKNTLYLQMNNLKPEDTALYYCAIGLNLSSSSVRGQGTQVTVSS
- Kd [1]: 9 nM
- dH [1]: ~-10 kcal/mol

B2: Ty1 nanobody, biotinylated on the C-terminus (VHH)
VHH: QVQLVETGGGLVQPGGSLRLSCAASGFTFSSVYMNWVRQAPGKGPEWVSRISPNSGNIGYTDSVKGRFTISRDNAKNTLYLQMNNLKPEDTALYYCAIGLNLSSSSVRGQGTQVTVSS
modifications: biotin on the C-terminus (GGGK-biotin joined by Sortase A)
notes: not shown: Sortase recognition site (LPETG), C-terminal, kept
- Kd [2]: 8 nM and 13 nM
